Experimental data taken from patent publication US20110165265A1, “TRAIL VARIANTS FOR TREATING CANCER” (FUNDACIÓ GENÒMICA (CRG), priority 2007, published 2011).
Several values for one entry are separate records, joined by “and”; a condition that tells them apart may be missing. Identical values can stand only once. Entries after “also recorded” stand apart in the source; their conditions may differ.

T1: DcR1 (Homo sapiens, UniProt O14798)
T1 construct: soluble, recombinant DcR1-Ig (sDcR1) and DcR2-Ig (sDcR2); purchased R&D Systems
T1 sequence (O14798 26-236 limits assumed): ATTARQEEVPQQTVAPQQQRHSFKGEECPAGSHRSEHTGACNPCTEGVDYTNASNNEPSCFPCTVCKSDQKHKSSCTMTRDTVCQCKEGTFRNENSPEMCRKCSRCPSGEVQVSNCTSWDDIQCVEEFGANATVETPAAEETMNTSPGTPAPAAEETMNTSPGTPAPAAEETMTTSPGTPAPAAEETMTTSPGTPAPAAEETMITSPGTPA

B1: D269HE195R: rhTRAIL (114-281) carrying mutations D269H and E195R; DR5-selective TRAIL variant (protein)
chain: MVRERGPQRVAAHITGTRGRSNTLSSPNSKNEKALGRKINSWESSRSGHSFLSNLHLRNGELVIHEKGFYYIYSQTYFRFQERIKENTKNDKQMVQYIYKYTSYPDPILLMKSARNSCWSKDAEYGLYSIYQGGIFELKENDRIFVSVTNEHLIDMHHEASFFGAFLVG
B2: wtTRAIL: wild-type soluble recombinant human TRAIL, amino acids 114-281 (SEQ ID NO: 3) (protein, listed as Homo sapiens)
chain: MVRRGRVAAHTGTRGRSNTSSNSKNKAGRKNSWSSRSGHSSNHRNGVHKGYYYSTYRKNTKNDKMVYYKYTSYDMKSARNSCWSKDAYGYSYGGKNDRVSVTNHDMDHASGAVG
modifications: TRAIL 114-281

What was measured:
Colo205 cells [1] = assay: Colo205 apoptosis after neutralizing antibodies to DcR1 and DcR2; format: cell-based, human; settings: for dose that induced approximately 50% cell death: Annexin V
Procedure: All graphs are representatives of two independent repeats. […] Induction of apoptosis was measured 3 h post-treatment using Annexin V assay. […] The graphs show the average±SEM of three independent experiments.
Apoptotic cell death was measured 3 h post-treatment using staining Annexin V assay (FIG. 15), as described above. Increase in apoptosis was expressed as fold increase compared to the level of apoptosis caused by the ligands alone, in the absence of the neutralizing antibodies.

Colo205 cells [2] = assay: Kinetics of receptor activation and apoptosis induction, ligand wash-out in Colo205; format: cell-based, human; settings: Colo205, 30 ng/ml; for incubation time to reach 50% of total efficacy: ligand washed out, Annexin V at 240 min
Procedure: Cell death induction was expressed relative to the percentage of death induced after 240 min without washing out the ligands.
The cells were harvested and cell death was quantified with Annexin V labelling (FIG. 16B), as described above. The data was fitted with an interpolating spline using the software MatlabR.
The cells were then incubated to a total of 180 min in normal growth medium and then the level of cell death was determined (FIG. 16C).

A2780 cells = assay: Annexin V apoptosis assay in A2780; format: cell-based, human
Human dermal fibroblasts = assay: MTT viability of human dermal fibroblasts; format: cell-based; settings: 50-500 ng/ml, 24 h
Procedure: Human dermal fibroblasts were grown in low glucose DMEM (Sigma) supplemented with 10% fetal calf serum, 50 U/ml penicillin and […] streptomycin; human umbilical vein endothelial cells (HUVEC, PromoCell) were cultured in Endothelial Cell Growth Medium with SupplementMix (PromoCell). Fibroblasts and HUVEC cells were seeded at 1.3×10^5 cells/ml 24 h before treatment with increasing concentrations of TRAIL and DR5-selective variants, D269H and D269HE195R (50-500 ng/ml) for 24 h and cell viability was measured using MTT assay, wherein 200 μg/ml MTT (3-(4,5-dimethylthiazo1-2-yl)-2,5-diphenyl-tetrazolium bromide) was added to control and treated cells and incubated for 3 h at 37° C. The reaction was stopped and the purple formazan precipitate formed was dissolved using dimethyl sulfoxide (DMSO) and the colour intensity was measured at 550 nm on a Wallac multilabel counter. The control value corresponding to untreated cells was taken as 100% and the viability of treated samples was expressed as a percentage of the control. (FIG. 15).

HeLa xenografts = HeLa xenografts in athymic nude mice; format: in vivo; settings: start at +/−150 mm3
From the text: Xenografts of the HeLa cervical cancer cell line were established with matrigel in athymic nude mice. Treatment was started when tumor volume was +/−150 mm3.

Colo205 cells [3] = assay: Cell survival / sensitivity of Colo205; format: cell-based
Procedure: (B) Effect of increasing concentrations of Aspirin on cell viability. (C) Effect of increasing concentrations of 5-Flurouracil on cell viability. (D) Combination therapy with 5 mM Aspirin pre-incubated for 24 h lead to further decreases in cell viability in cells treated with both TRAIL and two of the DR5 mutants. (E) 30 minute incubation of DR5 mutants, were sufficient decrease cell viability which was further augmented when cells were pre-incubated for 24 h with Aspirin. The shorter incubation period lead to a decrease potency of TRAIL alone or in combination with Aspirin. […] (G) 30 min incubation of the DR5 mutant was sufficient to decrease cell viability which was not enhanced by 5-Flurouracil, and once again the decease potency of TRAIL is seen. Proteins are indicated as follows: TRAIL stands for rhTRAIL WT; D269H stands for rhTRAIL carrying mutation D269H; E195R stands for rhTRAIL carrying mutations D269H and E195R; and M1 stands for rhTRAIL carrying mutations D269H, E194I and I196S.
TRAIL-induced cell death as a function of concentration was measured with the MTS assay.

LoVo cells = assay: Cell survival / sensitivity of LoVo; format: cell-based
From the text: C) Effect of increasing concentration of 5-Flurouracil on Lovo cells.

HeLa cells = assay: Cell survival / sensitivity of HeLa; format: cell-based
Procedure: (B) Effect of increasing of Bortezomib on cell viability. Hela cells appear to tolerate higher concentration of Bortezomib compared to Caski and SIHA cells (C) Combination therapy with 10 nM Bortezomib incubated for 24 h lead to further decreases in cell viability in cells treated with both TRAIL and two of the DR5 mutants (D) Radiation therapy in combination with TRAIL or the DR5 mutants further decrease cell viability in HELA cells. The DR5 mutant show decrease cell viability at lower concentration of ligand compared to TRAIL.

Colo205 cells [4] = assay: Annexin V apoptosis in Colo205 after PI3K inhibition; format: cell-based, human; settings: 20 μM LY294002 15-18 hours, ligand 0.1 μg/ml 3 h
Procedure: Modulation of TRAIL and D269H/E195R induced apoptosis by PI3K inhibition in Colo205, as assessed by Annexin V assay. Cells were pre-incubated for 15-18 hours with 20 μM LY294002, then either left untreated or exposed to rhTRAIL (0.1 μg/ml) or D269H/E195R (0.1 μg/ml) for 3 additional hours before harvest.

DR4 = biological target: T2, DR4 (Homo sapiens, UniProt O00220); settings: cited from earlier work
T2 construct: the more commonly used dimeric TRAIL-receptor-IgG Fc chimeric constructs

DcR1 = biological target: T1, DcR1; settings: cited from earlier work
A2780-Luc xenografts = assay: IP A2780-Luc xenografts, bioluminescence imaging; settings: for mean signal reduction as to vehicle treated mice: day 16, IP treatment; for light emission (bioluminescent signal): day 16, mean±SEM; for median survival: surrogate endpoint signal ≧3.1×10^8
Procedure: Visualization of response to TRAIL, TRAIL-DR5, cisplatin and to the combination of either ligand with cisplatin by means of bioluminescence imaging. Nude mice were inoculated IP with 2×10^6 A2780-Luc cells. After 5 days treatment was initiated; cisplatin (4 mg/kg IP) or vehicle at day 5 and 12, TRAIL, TRAIL-DR5 (5 mg/kg IP) or vehicle at day 5-10 and 12-16, or a combination of TRAIL or TRAIL-DR5 with cisplatin.
Female nude mice (Hsd:Athymic Nude-nu) were obtained from Harlan Nederland (Horst, The Netherlands) at 6-8 weeks of age (˜21 g). Inoculation was performed after 10 days of acclimatization.
Imaging was conducted with the IVIS 100 series (Xenogen Corporation Alameda, Calif.), composed of a cooled charge-coupled device camera connected to a light tight black chamber. Before in vivo imaging animals were anesthetized with 4% isoflurane and injected IP with D-luciferin (150 mg/kg, Xenogen) reconstituted in sterile PBS. Mice were placed in prone position on a warmed stage (37° C.) in the imaging chamber, and grayscale reference images were obtained under dim illumination. Pseudocolor images representing bioluminescent intensity were acquired with Livinglmage software (version 2.50, Xenogen) 10 and 15 min after D-luciferin injection in complete darkness. These images were superimposed on the grayscale images for analysis with Igor Pro software (version 4.09, WaveMetrics, Lake Oswego, Oreg.). All bioluminescence imaging (BLI) data are depicted in radiance units (photons/sec/cm^2/sr) enabling absolute comparisons between bioluminescent images and represent final data obtained after subtraction of the background signal.

T2 sequence (O00220 24-239 limits assumed): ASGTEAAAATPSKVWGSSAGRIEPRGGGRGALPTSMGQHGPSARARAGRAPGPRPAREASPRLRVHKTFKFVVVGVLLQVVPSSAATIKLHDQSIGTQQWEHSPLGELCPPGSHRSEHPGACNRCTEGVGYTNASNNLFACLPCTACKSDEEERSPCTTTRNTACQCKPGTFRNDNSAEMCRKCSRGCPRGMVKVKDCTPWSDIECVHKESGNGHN

Row | Molecule | apoptosis rate enhancement with neutralizing antibodies to both DcR1 and DcR2 (Colo205 cells [1]; Colo205) | fold increase in apoptosis with DcR1 neutralising antibody (Colo205 cells [1]; Colo205, 3 h) | dose that induced approximately 50% cell death (Colo205 cells [1]; Colo205, 3 h) [ng/mL] | incubation time to reach 50% of total efficacy (Colo205 cells [2]) | cell viability (Human dermal fibroblasts) | effect on xenografts (HeLa xenografts) | effect of 5-FU and Aspirin on induced apoptosis (Colo205 cells [3]; Colo205) | cell viability, single agent (LoVo cells) | effect of 5-FU and Aspirin on induced apoptosis (LoVo cells) | cell viability, single agent (HeLa cells) | effect of radiotherapy and Bortezomib on induced apoptosis (HeLa cells) | change of sensitivity after PI3K inhibition (Colo205 cells [4]) | mean signal reduction as to vehicle treated mice (A2780-Luc xenografts) [%] | light emission (bioluminescent signal) (A2780-Luc xenografts) | median survival (A2780-Luc xenografts) [days] | also measured
1 | B1 | not affected | no increase in apoptosis | ~4 | 3.55 min and 3.6 ± 0.4 min | did not result in a decrease in cell viability | No effect was observed | enhanced apoptosis | equal decrease in cell viability | enhanced apoptosis | comparable | enhanced apoptosis | enhanced | 68.3 | 1.4×10^8±1.3×10^7 radiance units | 21 | fold increase in apoptosis with DcR2 neutralising antibody (Colo205 cells [1]; Colo205, 3 h): no increase of apoptosis; also recorded: no increase in apoptosis; fold increase in apoptosis with neutralizing antibodies to both DcR1 and DcR2 (Colo205 cells [1]; Colo205, 3 h): not and not affected; effect of 5 or 10 min pre-incubation with wtTRAIL on induced apoptosis (Colo205 cells [2]): failed to reduce; apoptosis (A2780 cells; A2780, 10 ng/ml, Annexin V): 30.6±2.5%; cell viability, single agent (Colo205 cells [3]; Colo205): significantly less cell viability than TRAIL; sensitivity, single agent comparison (Colo205 cells [3]; Colo205): higher sensitivity; efficient concentration compared to wtTRAIL (Colo205 cells [3]; Colo205, MTS dose-response): efficient at a several fold lower concentration than needed for wtTRAIL; sensitivity, single agent comparison (LoVo cells): higher sensitivity; binding to DR4 (DR4; earlier work referred to): virtually absent; binding capacity to DcR1 (DcR1; earlier work referred to): virtually absent
2 | B2 | 1.5±0.1 fold | 1.5 fold | ~20 | 60.81 min and 60.8 ± 4.3 min | Neither wtTRAIL nor the DR5-selective variants had any effect; also recorded: did not result in a decrease in cell viability | No effect was observed | enhanced apoptosis | equal decrease in cell viability | enhanced apoptosis | comparable | enhanced apoptosis | slightly decreased | 48.8 | 2.3×10^8±3.1×10^7 radiance units | 21 | reduction of apoptosis-inducing potential in the presence of the decoy receptors (Colo205 cells [1]; Colo205): approximately 40%; incubation time for significant pro-caspase-8 processing (Colo205 cells [2]; Western blot): 60 min; cell death (A2780 cells; A2780, highest concentration tested 250 ng/ml): ≤ 24.3±4.5%; Kd (DR4; surface plasmon resonance, read-out: binding affinity Kd for DR4): 2.5 nM; Kd (DcR1; surface plasmon resonance, read-out: binding affinity Kd for DcR1): ~25 nM
